Assay results published in patent US20250270301A1 (GEN2 NEUROSCIENCE, published 2025).
Where a chain is given by its changes, count along the chain named. Read-outs that look alike come from different tables or passages of the source.

B1: #44_VH4VK4 humanised hIgG1 (antibody, V domains shown)
VH: QVQLQESGPGLVKPSETLSLTCTVSGIDLSSYAMAWVRQAPGKGLEWIGCIDRRGGTFYASWVKGRFTISKDTSKTTVDLQMTSLTAEDTATYFCARDSGAFDPWGQGTLVTVSS
VL: DIQMTQSPSSLSASVGDRVTITCQASQSVYDNYLAWYQQKPGQPPKLLIHAASNLASGVPSRFSGSGSGTEFTLTISSLQPDDFATYYCLGEFSCTTTDCNVFGGGTKVEIK
notes: also called VH4Vκ4; pVH/pVL
B2: #44_VH4VK4_H01/pVL (antibody, V domains shown)
VH: B1 VH with S99V, A101S, P104V
VL: B1 VL
notes: also called Clone VH4_H01; #44_VH4_H01
B3: #44_VH4VK4_H02/pVL (antibody, V domains shown)
VH: B1 VH with S99R, A101D, P104V
VL: B1 VL
notes: also called Clone VH4_H02; #44_VH4_H02
B4: #44_VH4VK4_H12/pVL (antibody, V domains shown)
VH: B1 VH with C50A, R53A, G56S
VL: B1 VL
notes: also called Clone VH4_H12; #44_VH4_H12
B5: #44_VH4VK4_H13/pVL (antibody, V domains shown)
VH: B1 VH with C50A, R53S, R54A, G56N
VL: B1 VL
notes: also called Clone VH4_H13; #44_VH4_H13
B6: #44_VH4VK4_H14/pVL (antibody, V domains shown)
VH: B1 VH with C50A, R53S, R54A, G56S, F67S
VL: B1 VL
notes: also called Clone VH4_H14; #44_VH4_H14
B7: #44_VH4VK4_H15/pVL (antibody, V domains shown)
VH: B1 VH with C50A, R53S, R54V, G56N
VL: B1 VL
notes: also called Clone VH4_H15; #44_VH4_H15
B8: #44_VH4VK4_H16/pVL (antibody, V domains shown)
VH: B1 VH with C50A, R54A, G56N
VL: B1 VL
notes: also called Clone VH4_H16; #44_VH4_H16
B9: #44_VH4VK4_H17/pVL (antibody, V domains shown)
VH: B1 VH with C50A, R54V, G56N
VL: B1 VL
notes: also called Clone VH4_H17; #44_VH4_H17
B10: #44_VH4VK4_H18/pVL (antibody, V domains shown)
VH: B1 VH with C50A, R53A, R54G, G56N
VL: B1 VL
notes: also called Clone VH4_H18; #44_VH4_H18
B11: #44_VH4VK4_H19/pVL (antibody, V domains shown)
VH: B1 VH with C50A, R53S, G56A
VL: B1 VL
notes: also called Clone VH4_H19; #44_VH4_H19
B12: #44_VH4VK4_H20/pVL (antibody, V domains shown)
VH: B1 VH with C50A, R53S, G56S
VL: B1 VL
notes: also called Clone VH4_H20; #44_VH4_H20
B13: #44_VH4VK4 pVH/L2 (antibody, V domains shown)
VH: B1 VH
VL: DIQMTQSPSSLSASVGDRVTITCQASQSVYDNYLAWYQQKPGQPPKLLIHAASNLASGVPSRFSGSGSGTEFTLTISSLQPDDFATYYCLGEFSCQDTDCNVFGGGTKVEIKR
notes: also called Clone VK4_L2; #44_VK4_L2
B14: Clone #66 (Clone 1) chimeric human IgG1 (antibody, V domains shown)
VH: QSVEESGGRLVTPGTPLTLTCTVSGIDLSSNAMIWVRQAPGKGLEYIGNIGTHGTTYYASWAKGRFTISKTSTTVDLKMTSPTTEDTATYFCSRGDIWGPGTLVTVSL
VL: AQVLTQTESPVSAPLRGTVTINCQASQSVDDNNNLAWYQQKPGQPPKLLIYEASTLASGVSSRFKGSGSGTQFTLTISDVQCDDAATYYCLGEFSCSSADCVVFGGGTEVVVKG
notes: rabbit VH and VK on human IgG1; also called #66 hIgG1

Assays:
Bovine serum albumin [1] = target: T1, Bovine serum albumin (bovine, UniProt P02769 25-607); experiment: ELISA on 1% BSA, HEK supernatant, anti-human IgG-HRP, n=1
T1 construct: also called BSA
T1 sequence (P02769 25-607 limits assumed): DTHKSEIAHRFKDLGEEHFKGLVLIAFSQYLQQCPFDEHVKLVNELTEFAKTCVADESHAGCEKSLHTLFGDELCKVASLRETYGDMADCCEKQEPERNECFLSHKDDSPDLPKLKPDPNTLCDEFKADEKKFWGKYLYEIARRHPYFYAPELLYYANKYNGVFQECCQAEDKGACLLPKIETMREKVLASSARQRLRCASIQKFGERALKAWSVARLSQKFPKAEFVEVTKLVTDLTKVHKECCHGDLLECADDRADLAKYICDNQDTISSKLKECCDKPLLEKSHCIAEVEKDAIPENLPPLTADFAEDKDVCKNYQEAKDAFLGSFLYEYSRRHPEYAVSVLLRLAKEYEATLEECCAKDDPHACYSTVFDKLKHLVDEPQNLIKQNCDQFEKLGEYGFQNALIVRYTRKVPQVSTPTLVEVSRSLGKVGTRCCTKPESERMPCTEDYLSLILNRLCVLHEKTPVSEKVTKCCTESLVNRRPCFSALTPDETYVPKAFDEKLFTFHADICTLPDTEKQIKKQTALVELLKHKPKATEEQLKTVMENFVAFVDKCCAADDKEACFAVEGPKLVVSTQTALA
How it was run: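 Wells coated with antigen, blocked 1 h RT in 5% milk/TBS; HEK293 transient-transfection supernatants applied at 1:100 in 1% BSA/TBS for 1 h RT. Bound hIgG1 detected with anti-human IgG-HRP (1:2000), TMB 15 min, acid stop, OD450; single replicate.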

[2] = target: monomeric P301S 2N4R tau, pHrodo-labelled (human, UniProt P10636 1-758, pHrodo Red maleimide label); experiment: cell-based or functional assay
Sequence of monomeric P301S 2N4R tau, pHrodo-labelled (P10636 other isoform, or with tags, fused parts or gaps P301S P301S): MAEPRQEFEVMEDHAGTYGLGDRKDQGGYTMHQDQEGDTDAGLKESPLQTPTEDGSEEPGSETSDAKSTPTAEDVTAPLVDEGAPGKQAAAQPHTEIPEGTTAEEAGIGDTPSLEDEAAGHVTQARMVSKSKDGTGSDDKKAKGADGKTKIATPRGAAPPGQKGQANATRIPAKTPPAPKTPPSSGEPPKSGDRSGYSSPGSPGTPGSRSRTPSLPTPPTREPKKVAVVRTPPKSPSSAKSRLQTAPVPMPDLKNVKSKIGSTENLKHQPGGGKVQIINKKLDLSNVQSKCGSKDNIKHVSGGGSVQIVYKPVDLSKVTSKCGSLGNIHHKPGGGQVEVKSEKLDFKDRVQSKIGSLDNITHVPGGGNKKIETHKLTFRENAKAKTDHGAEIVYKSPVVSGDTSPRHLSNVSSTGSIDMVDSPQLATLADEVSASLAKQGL

[3] = target: aggregated (oligomeric) P301S 2N4R tau, pHrodo-labelled (human, UniProt P10636 1-758, pHrodo Red maleimide label); experiment: cell-based or functional assay
Sequence of aggregated (oligomeric) P301S 2N4R tau, pHrodo-labelled (P10636 other isoform, or with tags, fused parts or gaps P301S P301S): as above

[4] = target: T2, full length recombinant human 2N4R tau (human, UniProt P10636 1-758); experiment: SPR SCK, IgG on Protein A, tau in flow
T2 construct: bought from rPeptide; pHrodo Red maleimide-labelled where it stands in uptake assays; also called tau1-441; full length tau
T2 sequence (P10636 other isoform, or with tags, fused parts or gaps limits assumed): as the sequence (P10636 other isoform, or with tags, fused parts or gaps P301S P301S) above, with S301P counted along it
How it was run: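 Antibodies were captured to ~50 RU on a Protein A chip in HBS-EP+ with 1 mg/mL BSA at 25 °C. Tau was injected by single-cycle kinetics at 1.25–10 nM (2-fold), with 60 s association and 200 s dissociation. Signals were referenced to a mock-immobilized cell.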

[5] = target: T2, full length recombinant human 2N4R tau; experiment: SPR MCK, IgG on Protein A, tau in flow
Description: Slight variations in RMAX are considered likely to be due to differences in ligand capture and not reflective of significant variation in antibody binding characteristics.
(§1) 22.2 Assessment of antibody binding to tau (Biacore MCK analysis): Binding of anti-tau hIgG1 to full length recombinant 2N4R tau (Rpeptide; SEQ ID NO: 2) was assessed using the Biacore T200 (GE Healthcare, Chicago, IL, USA) running Biacore T200 Evaluation Software V2.0.1. hIgG1 were immobilised on a Protein A capture sensor chip in running buffer (HBS-EP+ buffer containing 1 mg/mL BSA) at 25° C., captured to ˜50 RU at 10 L/min. For multi-cycle kinetics experiments, recombinant 2N4R tau was flowed at concentrations ranging from 0.39 nM to 12.5 nM in running buffer at 40 μL/min, with an association time of 60 s and a dissociation time of 200 s. Curves were compared to a reference cell that was mock immobilized (no antibody present).

[6] = target: T2, full length recombinant human 2N4R tau; experiment: SPR MCK, IgG on Protein A, tau in flow at 100 µL/min
[7] = target: T2, full length recombinant human 2N4R tau; experiment: SPR SCK, IgG on Protein A, tau in flow; remark: listed apart in the source
Bovine serum albumin [8] = target: T1, Bovine serum albumin; experiment: ELISA on 1% BSA, HEK supernatant, anti-human IgG-HRP, n=1; remark: listed apart in the source
[9] = target: T2, full length recombinant human 2N4R tau; experiment: SPR MCK, IgG on Protein A, tau in flow; remark: listed apart in the source
Description: Anti-tau IgGs bind to full length 2N4R tau (SEQ ID NO: 2) with high affinity. […] It is predicted that the binding affinity of these antibodies would be equivalent to any tau species containing the epitope corresponding to amino acids 369-381 of 2N4R tau (SEQ ID NO: 1), if this sequence is accessible.
as §1, with “19.2” for “22.2”, “tau:” for “tau (Biacore MCK analysis):”, “μL/min.” for “L/min.”, “experiments (clone #66), recombinant 2N4R tau was flowed at concentrations ranging from 0.39 nM to 50 nM in running buffer at 40 μL/min, with an association time of 150 s and a dissociation time of 250 s. Optimised conditions for multiple-cycle kinetics experiments were applied to clone #44:” for “experiments,”, “(2-fold dilutions)” for “in running buffer at 40 μL/min,”, “s (cropped to 65 s to improve analysis fit).” for “s.”

Binder | Fold change (KD, to pVH/pVL) [7] | Kd [7] [nM] | koff [7] [s⁻¹] | kon [7] [M⁻¹ s⁻¹] | binding result (Bovine serum albumin [8]) | further results
B1 | 1 | 6.58 | 0.012 | 1.82e+06 |  | binding result (Bovine serum albumin [1]): no binding (tested: supernatant 1:100); increase of monomeric tau uptake into human iPSC-derived microglia [2]: 59.4%; inhibition of monomeric tau uptake into human astrocytes [2]: 52.3%; inhibition of monomeric tau uptake into human iPSC-derived astrocytes [2]: 94.1%; increase of aggregated tau uptake into human iPSC-derived microglia [3]: 115%; inhibition of aggregated tau uptake into human astrocytes [3]: 41.3%; inhibition of aggregated tau uptake into human iPSC-derived astrocytes [3]: 61.9%; Kd [4]: 8.12 nM; Relative KD (to VH0VK0) [4]: 2.12; koff [4]: 0.0294 s⁻¹; kon [4]: 3.61e+06 M⁻¹ s⁻¹; Kd [5]: 5.84 nM; Relative KD (to VH0VK0) [5]: 1.8; koff [5]: 0.0316 s⁻¹; kon [5]: 5.41e+06 M⁻¹ s⁻¹; Fold improvement (KD, to pVH/pVL) [6]: 1; Kd [6]: 7.76 nM; koff [6]: 0.0147 s⁻¹; kon [6]: 1.89e+06 M⁻¹ s⁻¹
B2 | 2.43 | 2.71 | 0.00805 | 2.97e+06 | no binding (tested: 30 ng/ml (legend 1:100)) | inhibition of monomeric tau uptake into human astrocytes [2]: 67.5%; inhibition of monomeric tau uptake into human iPSC-derived neurons [2]: 89.2%; inhibition of aggregated tau uptake into human astrocytes [3]: 38.6%; inhibition of aggregated tau uptake into human iPSC-derived neurons [3]: 61.1%; Fold improvement (KD, to pVH/pVL) [6]: 1.9; Kd [6]: 4.01 nM; koff [6]: 0.00957 s⁻¹; kon [6]: 2.39e+06 M⁻¹ s⁻¹
B3 | 5.62 | 1.17 | 0.00324 | 2.78e+06 | no binding (tested: 30 ng/ml (legend 1:100)) | inhibition of monomeric tau uptake into human astrocytes [2]: 64.7%; inhibition of monomeric tau uptake into human iPSC-derived neurons [2]: 84.1%; inhibition of aggregated tau uptake into human astrocytes [3]: 43.3%; inhibition of aggregated tau uptake into human iPSC-derived neurons [3]: 59.2%; Fold improvement (KD, to pVH/pVL) [6]: 5.1; Kd [6]: 1.52 nM; koff [6]: 0.0037 s⁻¹; kon [6]: 2.43e+06 M⁻¹ s⁻¹
B4 | 1.09 | 6.04 | 0.251 | 4.16e+07 | no binding (tested: 30 ng/ml (legend 1:100)) | 
B5 | 0.38 | 17.3 | 0.0148 | 855000 | no binding (tested: 30 ng/ml (legend 1:100)) | 
B6 | 1.03 | 6.37 |  |  | no binding (tested: 30 ng/ml (legend 1:100)) | 
B7 | 0.75 | 8.76 | 0.0361 | 4.12e+06 | no binding (tested: 30 ng/ml (legend 1:100)) | 
B8 | 0.69 | 9.51 |  |  | no binding (tested: 30 ng/ml (legend 1:100)) | 
B9 | 1.03 | 6.36 | 0.306 | 4.81e+07 | no binding (tested: 30 ng/ml (legend 1:100)) | 
B10 | 0.19 | 34.2 | 0.00983 | 287000 | no binding (tested: 30 ng/ml (legend 1:100)) | 
B11 | 0.68 | 9.72 | 0.0122 | 1.26e+06 | no binding (tested: 30 ng/ml (legend 1:100)) | 
B12 | 0.75 | 8.78 | 0.0404 | 4.6e+06 | no binding (tested: 30 ng/ml (legend 1:100)) | 
B13 | 0.89 | 7.38 |  |  | no binding (tested: 30 ng/ml (legend 1:100)) | 
B14 |  |  |  |  |  | Kd [9]: 2.39 nM; koff [9]: 0.00478 s⁻¹; kon [9]: 2.01e+06 M⁻¹ s⁻¹
